Reference: patent US20170267762A1 (APOLLOMICS, published 2017)

Tests used:
[1] = molecular target: T1, human PD-1 on cells (293T cells transfected with human PD-1) (human, UniProt Q15116 25-288); assay: FACS ligand blockage: PD-L1 binding to 293T-PD1 cells
T1 construct: whole, on cells; Also used as the target for the functional rows, where PD-1 stands on human T cells

[2] = molecular target: T2, human PD-1 (construct not stated) (human, UniProt Q15116 25-167, limits assumed); assay: SPR (Biacore 3000), antibody captured on the chip, PD-1 as analyte, 1:1 Langmuir fit
T2 construct: also called PD-1 analyte
Method: To characterize the binding characteristics of the humanized antibodies, the binding kinetics between PD-1 and PD-1 antibodies were measured by Biacore3000 and recorded with a data collection rate of 1 Hz. The polyclonal rabbit anti-mouse IgG (GE, BR-1008-38) was diluted with 10 mM pH 5.0 sodium acetate and immobilized onto reference and experiment flow cells of a CMS biosensor chip to around 15000 RU using an amine coupling kit (GE, BR10050). In the beginning of each cycle, diluted test antibody (1.5 μg/mL) was injected over experiment flow cell for 1 minute to be captured. PD-1 analyte series were prepared by diluting the stocks with running buffer to 100nM followed by 2× serial dilution in the same buffer down to 0.78nM. Analytes were injected in series over the reference and experiment flow cells for 3 minutes at a flow rate of 30 μL/minute. Then running buffer (PBS with 0.05% P20) was allowed to flow over for 10 minutes at a flow rate of 30 μL/minute. At the end of each cycle, the biosensor surface was regenerated with 3 minutes injection of 10 mM pH1.7 Glycine-HC1 buffer at a flow rate of 10 μL/minute. For each analyte sample injection (i.e. each cycle), binding responses obtained from the experimental biosensor surface were double referenced by subtracting simultaneously recorded responses from the reference surface followed by additional subtraction of responses from a single referenced running buffer sample. The association and dissociation rate constants (ka and kd) were determined simultaneously by fitting double-referenced sensorgrams of the entire titration series to Langmuir model (1:1) using Biaevaluation 4.0 software. The dissociation constant, KD, was calculated from the determined rate constants by the relation KD =kd/ka. […] The Biocore binding curves are shown in FIGS. 10 and 17A, top panel, and the quantified binding data are summarized in FIGS. 10 and 17A, bottom panel.

[3] = molecular target: T1, human PD-1 on cells (293T cells …); assay: FACS binding to 293T cells expressing human PD-1, MFI
Method: The cells were incubated with the indicated antibody (20 ug/ml with the dilution of ⅕) at 4° C. for 1 h. Cells were washed three times with FACS buffer. A secondary antibody (PE Goat anti-mouse: 1:200; PE mouse anti-human: 1:10) was added to the cells at 100 ul/well, and incubated at 4° C. for 40min. Cells were washed three times with FACS buffer and analyzed by FACS Array.

[4] = molecular target: T1, human PD-1 on cells (293T cells …); assay: FACS ligand blockage: biotin-labeled PD-L1 binding to 293T cells expressing human PD-1, MFI
Method: Various concentrations of the testing hybridoma antibodies were added to the cell suspension and incubated at 4° C. for 60 minutes in 96 well plates. […] Plates were washed 3 times, and mouse anti-biotin PE antibody (Biolgend, cat# 409004) was added. Flow cytometric analyses were performed using a FACS Array.

[5] = molecular target: T3, human PD-1 extracellular domain fused with human Fc tag (hPD-1-hFc) (human); assay: ELISA binding to plate-bound PD-1, OD450 (methods similar to Example 2: plate coated with PD1-hFc)
T3 construct: also called human PD-1-hFc
Method: ELISA binding analysis was conducted based on human PD-1-hFc Protein. 96-well plates (Costar, Cat No:9018) were coated with 100 μL of 2 μg/ml PD1-hFc (CrownBio) in coating buffer (PBS, Hyclone, Cat No:SH30256.01B) overnight at 4° C. The wells were aspirated and non-specific binding sites were blocked by adding 200 μL of blocking buffer with 1% (w/v) of bovine serum albumin (BSA, Roche, Cat No: 738328) and incubating for 1 hour at 37° C. After the plates are washed three times with wash buffer (PBS with 0.05%(v/v) Tween20 (Sigma, Cat No:P1379), 100 μL/well of a suitable dilutions of hybridoma supernatant in blocking buffer were added and incubated at room temperature for 1 hour. The plates were washed and incubated with 100 μL/well of Goat anti-Mouse IgG (H+L) (Thermo, Cat No: 31432) in blocking buffer for 60 min. After the plates were washed, 100 μL/well of substrate solution (TMB(eBioscience, Cat No:00-4201-56) was added and the plates were incubated for 2min at room temperature. 100 μL/well of stop solution (2N H2SO4) was added to stop the reaction. The colorimetric signals were developed and read at 450 nm using a Auto Plate SpectraMax Plus (Supplier: Molecular Devices; Model: MNR0643; Software: SoftMax Pro v5.4).

[6] = molecular target: T4, human PD-1 extracellular domain fused with mouse Fc (PD-1-mFc) (human, UniProt Q15116 25-170); assay: ELISA ligand blockage: biotinylated PD-L1-mFc binding to plate-bound PD-1, OD450 (methods similar to Example 2: PD-1-mFc coated)
T4 construct: extracellular domain; not used because of the label; also called hPD-1-mFc; human PD-1-mouse Fc fusion protein
Method: PD-1-mFc antigen (CrownBio) was suspended in PBS (Hyclone,Cat No:SH30256.01B) buffer (2 ug/ml, 100 ul/ well) and coated on the 96 well plate (costar, Cat No.:9018) 4° C. overnight. Plates were washed 3 times using washing buffer: PBS+0.05% Tween 20(Sigma, Cat No.:P1379). 200 ul of blocking buffer (PBS+1%BSA(Roche, Cat No.:738328)), was added to each well, incubated at 37° C. for 1 hour, and washed 3 times. Various concentrations (suitable dilutions of hybridoma supernatant in PBS) of the anti-PD-1 Abs were added to the wells (100 μl/well) and incubated at 37° C. for 1 hour. […] Secondary antibody (Avidin HRP eBioscience cat No.:E07418-1632, 1:500, 100 ul/well) was added, incubated at 37 ° C. for 0.5 hour, and washed 3 times. TMB (Sigma, Cat No.: T0440, 100 ul/well) was added, and incubated for 3 min at RT. To stop the reaction, 2N H2SO4 (100 ul/well), was added. The colorimetric signals were developed and read at 450 nm using a Auto Plate SpectraMax Plus (Supplier: Molecular Devices; Model: MNR0643; Software: SoftMax Pro v5.4).

T2 sequence (Q15116 25-167 limits assumed): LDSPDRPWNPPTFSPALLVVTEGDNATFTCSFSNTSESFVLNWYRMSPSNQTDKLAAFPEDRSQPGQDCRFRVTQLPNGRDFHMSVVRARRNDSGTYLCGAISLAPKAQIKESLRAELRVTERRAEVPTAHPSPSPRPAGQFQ
T1 sequence (Q15116 25-288): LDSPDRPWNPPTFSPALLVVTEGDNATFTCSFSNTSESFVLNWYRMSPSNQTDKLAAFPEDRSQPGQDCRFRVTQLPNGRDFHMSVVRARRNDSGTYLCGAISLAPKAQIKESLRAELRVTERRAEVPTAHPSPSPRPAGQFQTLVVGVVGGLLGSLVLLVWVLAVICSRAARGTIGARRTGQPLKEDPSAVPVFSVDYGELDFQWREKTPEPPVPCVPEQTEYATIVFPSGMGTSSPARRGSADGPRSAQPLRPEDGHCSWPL
T4 sequence (Q15116 25-170): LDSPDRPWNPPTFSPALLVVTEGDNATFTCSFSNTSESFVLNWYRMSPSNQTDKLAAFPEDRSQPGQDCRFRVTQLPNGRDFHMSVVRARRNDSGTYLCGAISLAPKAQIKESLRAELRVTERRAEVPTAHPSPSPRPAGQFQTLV
T3 sequence (chain, as listed by the source limits assumed): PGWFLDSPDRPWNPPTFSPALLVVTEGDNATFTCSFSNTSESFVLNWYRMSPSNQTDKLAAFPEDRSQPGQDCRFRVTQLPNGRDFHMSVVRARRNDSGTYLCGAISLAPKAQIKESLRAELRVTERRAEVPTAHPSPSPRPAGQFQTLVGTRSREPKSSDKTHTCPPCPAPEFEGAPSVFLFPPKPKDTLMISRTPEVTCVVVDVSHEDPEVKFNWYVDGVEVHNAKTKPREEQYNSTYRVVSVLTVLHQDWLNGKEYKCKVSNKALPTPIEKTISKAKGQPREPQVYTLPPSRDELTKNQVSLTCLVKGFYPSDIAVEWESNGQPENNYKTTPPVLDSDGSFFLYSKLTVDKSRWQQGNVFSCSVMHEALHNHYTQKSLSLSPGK

Binder	IC50 [1] [mg/L]	Ka [2] [M⁻¹]	Kd [2] [nM]	koff [2] [s⁻¹]	kon [2] [M⁻¹ s⁻¹]	EC50 [3] [mg/L]	IC50 [4] [mg/L]	EC50 [5] [mg/L]	IC50 [6] [mg/L]
humanized 7A4D-hIgG4 (antibody, V domains shown, also called h7A4D) VH: QIQLVQSGSELKKPGASVKVSCKASGYTFTNFGMNWVRQAPGQGLKWMGWISGYTREPTYAADFKGRFVISLDTSVSTAYLQISSLKAEDTAVYYCARDVFDYWGQGTLVTVSS VL: DIVLTQSPASLAVSPGQRATITCRASESVDNYGYSFMNWFQQKPGQPPKLLIYRASNLESGVPARFSGSGSRTDFTLTINPVEADDTANYYCQQSNADPTFGQGTKLEIKR	0.0258	2.55e+09	0.391	0.000532	1.36e+06				
humanized 7A4-hIgG1 (antibody, IgG1 constant region with D265A, already in the entry; also called h7A4-IgG1; hu-7A4-D265A-hIgG1) heavy: not shown light: DIVLTQSPASLAVSPGQRATITCRASESVDNYGYSFMNWFQQKPGQPPKLLIYRASNLESGVPARFSGSGSRTDFTLTINPVEANDTANYYCQQSNADPTFGQGTKLEIKRTVAAPSVFIFPPSDEQLKSGTASVVCLLNNFYPREAKVQWKVDNALQSGNSQESVTEQDSKDSTYSLSSTLTLSKADYEKHKVYACEVTHQGLSSPVTKSFNRGEC		9.82e+09	0.102	0.000212	2.09e+06	0.0332	0.00761	0.0331	0.763
